# Data as given in publication PMC8593083 (2021).
# Where a chain is given by its changes, count along the chain named. Names and notes keep the numbering of the source.
# B1: NSD2 E1099K mutant protein (973-1226) (domain or fragment)
# chain: KLQREARETQESERKPPPYKHIKVNKPYGKVQIYTADISEIPKCNCKPTDENPCGFDSECLNRMLMFECHPQVCPAGEFCQNQCFTKRQYPETKIIKTDGKGWGLVAKRDIRKGEFVNEYVGELIDKEECMARIKHAHENDITHFYMLTIDKDRIIDAGPKGNYSRFMNHSCQPNCETLKWTVNGDTRVGLFAVCDIPAGTELTFNYNLDCLGNEKTVCRCGASNCSGFLGDRPKTSTTLSSEEKGKKTKKKTR
# B2: NSD2 T1150A mutant protein (973-1226) (domain or fragment)
# chain: B1 chain with K127E, T178A
# B3: wild-type NSD2 protein (973-1226) (domain or fragment)
# chain: B1 chain with K127E
# Target: T1, nucleosome with the 185-bp DNA fragment (human, UniProt P0C0S8 2-130; P62807 2-124; P68431 2-136; P62805 2-103)
# Experiment: MST; 185-bp nucleosome
row,Kd [nM],Binder
1,202,B1
2,70,B2
3,88,B3

# Target: T1, nucleosome with the 185-bp DNA fragment
# Experiment: nucleosome with 185-bp DNA
row,Kd [nM],Binder
1,202,B1
2,70,B2
3,88,B3
